Experimental data published in publication PMC8096265, “A functional LSD1 coregulator screen reveals a novel transcriptional regulatory cascade connecting R-loop homeostasis with epigenetic regulation” (Nucleic Acids Research, 2021).

Molecular target: FITC-labelled H3.1 peptide (residues 16-34) trimethylated at K27 (UniProt P68431)
Test: fluorescence polarisation; fluorescence anisotropy; 50 nM FITC-labelled H3.1 (16-34) peptide in 20 mM HEPES pH 7.5, 100 mM KCl, 0.1 mM DTT, 10% glycerol; DDX19A added stepwise; 23°C; fit to a simple binding equilibrium

B1: GST-DDX19A (recombinant full-length DEAD-box helicase 19A) (enzyme)
chain: MATDSWALAVDEQEAAVKSMTNLQIKEEKVKADTNGIIKTSTTAEKTDEEEKEDRAAQSLLNKLIRSNLVDNTNQVEVLQRDPNSPLYSVKSFEELRLKPQLLQGVYAMGFNRPSKIQENALPMMLAEPPQNLIAQSQSGTGKTAAFVLAMLSRVEPSDRYPQCLCLSPTYELALQTGKVIEQMGKFYPELKLAYAVRGNKLERGQKISEQIVIGTPGTVLDWCSKLKFIDPKKIKVFVLDEADVMIATQGHQDQSIRIQRMLPRNCQMLLFSATFEDSVWKFAQKVVPDPNVIKLKREEETLDTIKQYYVLCSSRDEKFQALCNLYGAITIAQAMIFCHTRKTASWLAAELSKEGHQVALLSGEMMVEQRAAVIERFREGKEKVLVTTNVCARGIDVEQVSVVINFDLPVDKDGNPDNETYLHRIGRTGRFGKRGLAVNMVDSKHSMNILNRIQEHFNKKIERLDTDDLDEIEKIAN
Kd: 82 nM
